{"source": "patent US20190330374A1", "binders": {"B1": {"name": "Anti-OX40 #1-IgM (antibody, V domains shown)", "VH": "QVQLQESGPGLVKPSQTLSLTCAVYGGSFSSGYWNWIRKHPGKGLEYIGYISYNGITYHNPSLKSRITINRDTSKNQYSLQLNSVTPEDTAVYYCARYKYDYDGGHAMDYWGQGTLVTVSS", "VL": "DIQMTQSPSSLSASVGDRVTITCRASQDISNYLNWYQQKPGKAPKLLIYYTSKLHSGVPSRFSGSGSGTDYTLTISSLQPEDFATYYCQQGSALPWTFGQGTKVEIK"}}, "key": {"[1]": {"molecular_target": "OX40 on activated T cells (PBMCs activated with Human T cell Activator Dynabeads) (human) (UniProt P43489)", "sequence (P43489 29-277)": "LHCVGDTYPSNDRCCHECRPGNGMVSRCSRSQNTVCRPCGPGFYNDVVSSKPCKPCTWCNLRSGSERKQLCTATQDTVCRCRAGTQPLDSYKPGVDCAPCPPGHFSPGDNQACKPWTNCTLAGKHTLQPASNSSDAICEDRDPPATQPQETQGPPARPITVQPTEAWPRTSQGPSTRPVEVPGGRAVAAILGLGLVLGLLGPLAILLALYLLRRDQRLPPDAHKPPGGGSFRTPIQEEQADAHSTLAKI", "assay": "flow cytometry on activated PBMCs, CD8+ T cells with low OX40"}, "[2]": {"molecular_target": "OX40 on activated T cells (PBMCs activated with Human T cell Activator Dynabeads) (human) (UniProt P43489)", "assay": "flow cytometry on activated PBMCs, CD4+ T cells with high OX40"}, "OX40-Fc (R&D) (human) [3]": {"molecular_target": "OX40-Fc (R&D) (human) (UniProt P43489)", "sequence (P43489 29-216 limits assumed)": "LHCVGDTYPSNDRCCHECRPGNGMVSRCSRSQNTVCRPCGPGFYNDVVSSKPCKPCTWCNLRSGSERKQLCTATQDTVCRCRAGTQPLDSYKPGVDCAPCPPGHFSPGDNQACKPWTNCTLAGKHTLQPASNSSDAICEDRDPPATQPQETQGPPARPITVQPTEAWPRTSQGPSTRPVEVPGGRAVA", "assay": "ELISA, plate coated with 0.4 ng/mL OX40-Fc, anti-human kappa-HRP detection"}, "OX40-Fc (R&D) (human) [4]": {"molecular_target": "OX40-Fc (R&D) (human) (UniProt P43489)", "assay": "ELISA, plate coated with 1.6 ng/mL OX40-Fc, anti-human kappa-HRP detection"}}, "data": [{"binder": "B1", "values": [{"measurement": "fold better binding than Anti-OX40 #1-IgG (ratio of Kd, IgG to IgM)", "setting": "[1]", "result": 25, "unit": "fold"}, {"measurement": "fold better binding than Anti-OX40 #1-IgG (ratio of Kd, IgG to IgM)", "setting": "[2]", "result": 6, "unit": "fold"}, {"measurement": "fold better binding than Anti-OX40 #1-IgG (ratio of Bmax)", "setting": "OX40-Fc (R&D) (human) [3]", "result": 28, "unit": "fold"}, {"measurement": "fold better binding than Anti-OX40 #1-IgG (ratio of Bmax)", "setting": "OX40-Fc (R&D) (human) [4]", "result": 1.2, "unit": "fold"}]}]}
